Laboratory results: patent publication US20240132578A1

Legend:
Test in all cases: cell-based or functional assay
[1] = molecular target: HIV-1 Env of isolate MGRM-AE-003 (subtype AE) (HIV-1)
[2] = molecular target: HIV-1 Env of isolate MGRM-A-009 (subtype A) (HIV-1)
[3] = molecular target: HIV-1 MGRM-C-028 Env (HIV-1)
[4] = molecular target: HIV-1 JR-CSF Env N411A (HIV-1 (isolate JR-CSF)) (UniProt P20871)
[5] = molecular target: HIV-1 Env of isolate MGRM-AG-008 (subtype AG) (HIV-1)
[6] = molecular target: HIV-1 Env of isolate 92WR009 (pseudovirus) (HIV-1)
[7] = molecular target: HIV-1 JR-CSF Env T303A (HIV-1 (isolate JR-CSF, clade B)) (UniProt P20871)
[8] = molecular target: HIV-1 MGRM-D-018 Env (HIV-1)
[9] = molecular target: HIV-1 Env of isolate 92UG024 (pseudovirus) (HIV-1)
[10] = molecular target: HIV-1 Env of isolate 92UG005 (pseudovirus) (HIV-1)
[11] = molecular target: HIV-1 Env of isolate MGRM-D-014 (pseudovirus) (HIV-1)
[12] = molecular target: HIV-1 Env of isolate MGRM-F1-017 (pseudovirus) (HIV-1)
[13] = molecular target: HIV-1 envelope glycoprotein (Env) of isolate PVO.4, on pseudovirus (HIV-1)
[14] = molecular target: HIV-1 envelope glycoprotein (Env) of isolate MGRM-Chronic-B-017, on pseudovirus (HIV-1)
[15] = molecular target: HIV-1 envelope glycoprotein (Env) of isolate MGRM-Chronic-B-020, on pseudovirus (HIV-1)
[16] = molecular target: HIV-1 Env of isolate MGRM-F1-015 (pseudovirus) (HIV-1)
[17] = molecular target: HIV-1 Env of isolate MGRM-F1-021 (pseudovirus) (HIV-1)
[18] = molecular target: HIV-1 envelope glycoprotein (Env) of isolate QH0692.42, on pseudovirus (HIV-1)
[19] = molecular target: HIV-1 Env of isolate 92RW020 (clade A pseudovirus) (HIV-1)
[20] = molecular target: HIV-1 Env of pseudovirus MGRM-F1-017 (clade F) (HIV-1)
[21] = molecular target: HIV-1 envelope glycoprotein (Env) of isolate LAVI_C3 (HIV-1)
[22] = molecular target: HIV-1 Env of pseudovirus MGRM-F1-022 (clade F) (HIV-1)
[23] = molecular target: HIV-1 Env of isolate MGRM-Chronic-B-004, clade B (HIV-1)
[24] = molecular target: HIV-1 94UG103 envelope (Env) on pseudovirus (HIV-1)
[25] = molecular target: HIV-1 Env of pseudovirus MGRM-G-024 (HIV-1)
[26] = molecular target: HIV-1 Env of pseudovirus MGRM-G-011 (HIV-1)
[27] = molecular target: HIV-1 93UG077 envelope (Env) on pseudovirus (HIV-1)
[28] = molecular target: HIV-1 Env of isolate JRCSF (Clade B) (HIV-1) (UniProt P20871)
[29] = molecular target: HIV-1 envelope glycoprotein (Env) of isolate 93IN905 (HIV-1)
[30] = molecular target: HIV-1 Env of isolate 92RW008 (clade A pseudovirus) (HIV-1)
[31] = molecular target: HIV-1 envelope glycoprotein (Env) of isolate MGRM-C-006 (HIV-1)
[32] = molecular target: HIV-1 Env of isolate MGRM-Chronic-B-002, clade B (HIV-1)
[33] = molecular target: aMLV envelope on pseudovirus (negative control)
[34] = molecular target: HIV-1 Env of isolate 93IN905 (Clade C) (HIV-1)
[35] = molecular target: HIV-1 92RW021 envelope glycoprotein (Env) on pseudovirus (HIV-1 (clade A))

1443_C16 (PG16) (TCN-116) (antibody), sequence (VH): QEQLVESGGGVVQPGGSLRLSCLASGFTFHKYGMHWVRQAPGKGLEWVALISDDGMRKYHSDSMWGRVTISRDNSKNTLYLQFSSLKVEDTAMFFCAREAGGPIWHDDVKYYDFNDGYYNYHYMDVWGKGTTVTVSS
1443_C16 (PG16) (TCN-116) (antibody), sequence (VL): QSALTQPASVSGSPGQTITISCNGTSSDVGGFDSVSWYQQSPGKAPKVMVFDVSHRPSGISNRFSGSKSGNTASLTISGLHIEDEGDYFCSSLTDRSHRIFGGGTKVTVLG

Row | Substance | Fold IC50 increase relative to wild-type (pseudovirus neutralization) [4] [fold] | Fold IC50 increase relative to wild-type [7] [fold] | IC50 (µg/ml), pseudovirus neutralization [19] [µg/mL] | IC50 [20] [µg/mL] | IC50 (µg/ml), pseudovirus neutralization [21] [µg/mL] | IC50 [22] [µg/mL] | IC50 (µg/ml), pseudovirus neutralization [23] [µg/mL] | neutralization IC50 [24] [µg/mL] | IC50 (µg/ml), pseudovirus neutralization [25] [µg/mL] | IC50 (µg/ml), pseudovirus neutralization [26] [µg/mL] | neutralization IC50 [27] [µg/mL] | IC90 (neutralization of pseudovirus) [28] [µg/mL] | IC50 (µg/ml), pseudovirus neutralization [29] [µg/mL] | IC50 (µg/ml), pseudovirus neutralization [30] [µg/mL] | IC50 (µg/ml), pseudovirus neutralization [31] [µg/mL] | IC50 (µg/ml), pseudovirus neutralization [32] [µg/mL] | neutralization IC50 [33] [µg/mL] | IC90 (neutralization of pseudovirus) [34] [µg/mL] | IC50 (µg/ml), pseudovirus neutralization [35] [µg/mL] | other results
1 | 5147_N06 (PGT-130) (antibody) | 0.6 | > 250 |  |  |  |  |  |  |  |  |  |  |  |  |  |  |  |  |  | IC50, pseudovirus neutralization [1]: 0.337 µg/mL; IC50, pseudovirus neutralization [2]: 0.308 µg/mL; IC50, pseudovirus neutralization [3]: > 10 µg/mL; IC50, pseudovirus neutralization [5]: > 50 µg/mL; IC50 (µg/mL), pseudovirus neutralization [6]: 1.27 µg/mL; IC50, pseudovirus neutralization [8]: 0.0378 µg/mL; IC50 (µg/mL), pseudovirus neutralization [9]: > 50 µg/mL; IC50 (µg/mL), pseudovirus neutralization [10]: 0.959 µg/mL; IC50 (µg/mL), pseudovirus neutralization [11]: 0.061 µg/mL
2 | 5123_A06 (PGT-125) (antibody) | 0.5 | > 250 |  |  |  |  |  |  |  |  |  |  |  |  |  |  |  |  |  | IC50 (µg/mL), pseudovirus neutralization [12]: > 50 µg/mL; IC50, pseudovirus neutralization [3]: 5.78 µg/mL; IC50, pseudovirus neutralization [13]: 0.042 µg/mL; IC50, pseudovirus neutralization [14]: > 50 µg/mL; IC50, pseudovirus neutralization [15]: 0.087 µg/mL; IC50 (µg/mL), pseudovirus neutralization [16]: > 50 µg/mL; IC50 (µg/mL), pseudovirus neutralization [17]: > 50 µg/mL; IC50, pseudovirus neutralization [8]: 0.0382 µg/mL; IC50, pseudovirus neutralization [18]: 0.048 µg/mL
3 | 2F5 (antibody) |  |  | 3.36 | > 50 | > 50 | 1.26 | 2.41 | 3.79 | 1.07 | 1.16 | 4.45 | 25.3 | > 50 | 10.4 | > 50 | 1.25 | > 50 | > 50 | 4.16 | 
4 | 2G12 (antibody) |  |  | 0.48 | > 50 | > 50 | > 50 | 8.65 | > 50 | > 50 | > 50 | > 50 | 5.38 | > 50 | 22.5 | > 50 | > 50 | > 50 | > 50 | > 50 | 
5 | 5141_B17 (PGT-126) (antibody) | 0.7 | > 250 |  |  |  |  |  |  |  |  |  |  |  |  |  |  |  |  |  | IC50 (µg/mL), pseudovirus neutralization [12]: > 50 µg/mL; IC50, pseudovirus neutralization [3]: 0.283 µg/mL; IC50, pseudovirus neutralization [13]: 0.017 µg/mL; IC50, pseudovirus neutralization [14]: > 50 µg/mL; IC50, pseudovirus neutralization [15]: 0.021 µg/mL; IC50 (µg/mL), pseudovirus neutralization [16]: > 50 µg/mL; IC50 (µg/mL), pseudovirus neutralization [17]: > 50 µg/mL; Neutralization IC80 [29]: 0.0676 µg/mL; Neutralization IC90 [29]: 0.14 µg/mL; Neutralization IC95 [29]: 0.275 µg/mL; neutralization IC50 [29]: 0.0194 µg/mL; IC50, pseudovirus neutralization [8]: 0.0093 µg/mL; IC50, pseudovirus neutralization [18]: 0.048 µg/mL
6 | 1495_C14 (PGC14) (antibody) |  |  | 46 | > 50 | 12 | > 50 | > 50 | > 50 | > 50 | > 50 | > 50 |  | 19 | 37 | > 50 | > 50 | > 50 |  | > 50 | 
7 | 1443_C16 (PG16) (TCN-116) (antibody) |  |  | 0.28 | > 50 | 9.55 | 0.08 | 0.01 | 0.008 | 0.01 | 0.04 | > 50 | 0.013 | 0.25 | 0.002 | 2.62 | 3.06 | > 50 | > 50 | 0.11 | 
8 | 5114_A19 (PGT-128) (antibody) | 0.7 | > 500 |  |  |  |  |  |  |  |  |  |  |  |  |  |  |  |  |  | IC50, pseudovirus neutralization [1]: 0.18 µg/mL; IC50, pseudovirus neutralization [2]: 0.005 µg/mL; IC50, pseudovirus neutralization [5]: 0.668 µg/mL; IC50 (µg/mL), pseudovirus neutralization [6]: 0.812 µg/mL; IC50 (µg/mL), pseudovirus neutralization [9]: > 50 µg/mL; IC50 (µg/mL), pseudovirus neutralization [10]: 0.018 µg/mL; IC50 (µg/mL), pseudovirus neutralization [11]: 0.013 µg/mL
9 | 5136_H01 (PGT-131) (antibody) | 0.6 | > 170 |  |  |  |  |  |  |  |  |  |  |  |  |  |  |  |  |  | IC50, pseudovirus neutralization [1]: 1.41 µg/mL; IC50, pseudovirus neutralization [2]: 0.035 µg/mL; IC50, pseudovirus neutralization [5]: > 50 µg/mL; IC50 (µg/mL), pseudovirus neutralization [6]: 3.12 µg/mL; IC50 (µg/mL), pseudovirus neutralization [9]: > 50 µg/mL; IC50 (µg/mL), pseudovirus neutralization [10]: 0.854 µg/mL; IC50 (µg/mL), pseudovirus neutralization [11]: 0.516 µg/mL
10 | b12 (antibody) |  |  | > 50 | > 50 | 0.94 | > 50 | 0.26 | 3.54 | 2.38 | > 50 | 41.1 | 1.17 | 21.4 | 9.46 | > 50 | 0.86 | > 50 | > 50 | > 50 | 
11 | 4E10 (antibody) |  |  | 4.54 | 4.92 | 2.85 | 1.01 | 3.7 | 9.7 | 1.57 | 1.44 | 11.2 | 44.1 | 1.26 | 14.5 | 4.94 | 2.19 | > 50 | 12.8 | 4.87 | 
